From patent US11686724B2, “Compositions comprising gamma 9 delta 2 T-cell receptors and methods of use thereof to treat cancer” (Gadeta B.V., priority 2012, dated 2023)

Key:
Daudi [1] = assay: 51Cr-release assay of γ9δ2TCR-transduced T-cells against Daudi; format: cell-based; details: FIG. 1A, E:T 3:1, 5 h
Procedure: (§1) 51Chromium-release assay for cell-mediated cytotoxicity was previously described. Target cells were labeled overnight with 100 μCu 51Cr (150 μCu for primary cells) and incubated for 5 h with transduced T-cells in five effector-to-target ratios (E:T) between 30:1 and 0.3:1. Fold change was calculated when compared to reactivity of engineered T-cells expressing unmutated γ9δ2TCR. IFN-γ ELISpot was performed using anti-hulFN-γmAb1-D1K (I) and mAb7-B6-1 (II) (Mabtech-Hamburg, Germany) following the manufacturer's recommended procedure. Target and effector cells (E:T 3:1) were incubated for 24 h in the presence of pamidronate (Calbiochem, Germany) where indicated. IFNγ ELISA was performed using ELISA-ready-go! Kit (eBioscience) following manufacturer's instructions. Effector and target cells (E:T 1:1) were incubated for 24 h in the presence of pamidronate as indicated. Where specified, fold change was calculated when compared to reactivity of engineered T-cells expressing unmutated γ9δ2TCR.
^51Chromium-release assay for cell-mediated cytotoxicity was previously described (Kuball et al., 2004). […] After 4-6 h ^51Cr-release was measured in the supernatant. Fold change was calculated based on ^51Cr-release of γ9-G115wt/69-G115wt transduced T-cells normalized to 1; for side by side experiments based on γ9-3wt/δ9-3wt, γ9-5wt/δ9-5wt or γ9-G115wt/69-G115wt normalized to 1.

Daudi [2] = assay: IFNγ ELISA of γ9δ2TCR-transduced T-cells against Daudi in the presence of pamidronate; format: cell-based; design: IFNγ secretion (max.): unit not given here; details: CD4+ transduced T-cells, pamidronate titration; for IFNγ secretion (max.): FIG. 1B
Procedure: as §1
IFN-γELISA was performed using ELISA-ready-go! Kit (eBioscience) following manufacturers' instructions. Effector and target cells (E:T 1:1) were incubated for 24 h in the presence of pamidronate as indicated. Where specified, fold change was calculated based on IFN-γ secretion γ9-G115wt/6δ-G115wt transduced T-cells normalized to 1; for the side by side experiments based on γ9-3wt/δ9-3wt, γ9-5wt/69-5wt or γ9-G115wt/δ9-G115wt normalized to 1.

RPMI8226/S-luciferase = RPMI8226/S-luciferase xenograft in Rag2−/−γc−/− mice, adoptive transfer of engineered T-cells; format: in vivo; details: day 35, n=7, one i.v. injection of 10^7 T-cells
Procedure: (§2) To induce tumour xenografts, sublethal total body irradiated (2 Gy), 11-17 weeks old RAG-2−/−/yc−/−-BALB/C mice were injected i.v. with 0.5×10^6 Daudi-Luc cells (a kind gift from Genmab Utrecht, The Netherlands) or 5×10^6 RPM I8226/S-Luc cells (Anton Martens, Utrecht, The Netherlands) together with 10^7 γ9δ2TCR+ transduced T-cells. The RAG−2^−/^−yc^−/−-BALB/C mice were originally obtained from AMCAS b.v. (Amsterdam, the Netherlands). Mice were bred and housed in the specific pathogen-free (SPF) breeding unit of the Central Animal Facility of the University of Utrecht. All animal experiments were conducted according to Institutional Guidelines after acquiring permission from the local Ethical Committee for Animal Experimentation, and in accordance with current Dutch laws on Animal Experimentation. All mice developed tumours, mainly growing in the bone marrow visualized in vivo once a week by Biospace bioluminescent imaging. […] Bioluminescence images were acquired using a third generation cooled GaAs intensified charge-coupled device camera, controlled by the Photo Vision software and analyzed with M^3Vision software (all from Photon Imager; Biospace Laboratory). […] Bioluminescence images were acquired and analyzed with M3Vision software (Photon Imager, Biospace Laboratory). […]

Daudi-luciferase = Daudi-luciferase xenograft in Rag2−/−γc−/− mice, adoptive transfer of engineered T-cells; format: in vivo
Procedure: as §2

[3] = test system: healthy CD34+ progenitor cells; assay: IFNγ ELISpot against healthy CD34+ progenitor cells; format: cell-based; details: FIG. 5C
Procedure: as §1
Mabtech (Hamburg, Germany) following manufactures' recommended procedure (Besold et al., 2007). In all assays target and effector cells (E:T 3:1) were incubated for 24 h in the presence of pamidronate (Calbiochem, Germany) where indicated. […]

[4] = Allo-reactivity of γ9δ2TCR-transduced T-cells; format: cell-based

B1: γ9-cl3/δ2-cl3: wildtype γ9δ2TCR of T-cell clone 3 (SEQ ID 8 and 10) (protein, listed as Homo sapiens)
chain 1: MVSLLHASTLAVLGALCVYGAGHLEQPQISSTKTLSKTARLECVVSGITISATSVYWYRERPGEVIQFLVSISYDGTVRKESGIPSGKFEVDRIPETSTSTLTIHNVEKQDIATYYCALWEEELGKKIKVFGPGTKLIITDKQLDADVSPKPTIFLPSIAETKLQKAGTYLCLLEKFFPDVIKIHWEEKKSNTILGSQEGNTMKTNDTYMKFSWLTVPEKSLDKEHRCIVRHENNKNGVDQEIIFPPIKTDVITMDPKDNCSKDANDTLLLQLTNTSAYYMYLLLLLKSVVYFAIITCCLLRRTAFCCNGEKS
chain 2: MERISSLIHLSLFWAGVMSAIELVPEHQTVPVSIGVPATLRCSMKGEAIGNYYINWYRKTQGNTMTFIYREKDIYGPGFKDNFQGDIDIAKNLAVLKILAPSERDEGSYYCACDLLGYTDKLIFGKGTRVTVEPRSQPHTKPSVFVMKNGTNVACLVKEFYPKDIRINLVSSKKITEFDPAIVISPSGKYNAVKLGKYEDSNSVTCSVQHDNKTVHSTDFEVKTDSTDHVKPKETENTKQPSKSCHKPKAIVHTEKVNMMSLTVLGLRMLFAKTVAVNFLLTAKLFFL
reduced ability to lyse tumour cells vs control γ9-G115wt/δ2-G115wt (Daudi [1]): 50% | IFNγ secretion (max.) (Daudi [2]): 600

B2: γ9-G115/δ2-G115: reference γ9δ2TCR of clone G115, γ9 chain SEQ ID NO.1 and δ2 chain SEQ ID NO.2, control (protein, listed as Homo sapiens)
chain 1: MVSLLHASTLAVLGALCVYGAGHLEQPQISSTKTLSKTARLECVVSGITISATSVYWYRERPGEVIQFLVSISYDGTVRKESGIPSGKFEVDRIPETSTSTLTIHNVEKQDIATYYCALWEAQQELGKKIKVFGPGTKLIITDKQLDADVSPKPTIFLPSIAETKLQKAGTYLCLLEKFFPDVIKIHWEEKKSNTILGSQEGNTMKTNDTYMKFSWLTVPEKSLDKEHRCIVRHENNKNGVDQEIIFPPIKTDVITMDPKDNCSKDANDTLLLQLTNTSAYYMYLLLLLKSVVYFAIITCCLLRRTAFCCNGEKS
chain 2: MERISSLIHLSLFWAGVMSAIELVPEHQTVPVSIGVPATLRCSMKGEAIGNYYINWYRKTQGNTMTFIYREKDIYGPGFKDNFQGDIDIAKNLAVLKILAPSERDEGSYYCACDTLGMGGEYTDKLIFGKGTRVTVEPRSQPHTKPSVFVMKNGTNVACLVKEFYPKDIRINLVSSKKITEFDPAIVISPSGKYNAVKLGKYEDSNSVTCSVQHDNKTVHSTDFEVKTDSTDHVKPKETENTKQPSKSCHKPKAIVHTEKVNMMSLTVLGLRMLFAKTVAVNFLLTAKLFFL
tumour outgrowth by bioluminescence imaging (RPMI8226/S-luciferase): 210.000 counts/min | tumour outgrowth by bioluminescence imaging (Daudi-luciferase; Daudi, day 42, n=4, one i.v. injection of 10^7 T-cells): 180.000 counts/min | protection against tumour growth (BLI) (Daudi-luciferase; one T-cell infusion, FIGS. 6A and 6B (Daudi and RPMI8226/S)): loss of protection | recognition of CD34+ progenitor cells [3]: not recognized | IFNγ secretion (max.) (Daudi [2]): 800 | IFNγ production (max.) (Daudi [2]; FIG. 1D): 800 pg/mL | allo-reactivity compared to mock-transduced cells [4]: nearly abolished
